Reference: article PMC3373503, “Ca^2+ Regulates the Drosophila Stoned-A and Stoned-B Proteins Interaction with the C2B Domain of Synaptotagmin-1” (PLoS ONE, 2012)

Assays:
Assay in all cases: pull-down; 1.5 µM GST protein as bait on glutathione resin, 0.25 µM MBP protein as prey; 2 h at 4°C; 10 mM HEPES pH 7.4, 1 mM MgCl2, 1 mg/ml BSA, 1 mM CaCl2 (Ca2+ binding buffer); eluted with glutathione, anti-MBP Western blot, densitometry
[1] = biological target: GST-ΔW, C2B domain of Synaptotagmin-1 truncated immediately before the WHTL motif (Drosophila) (UniProt P21521)
[2] = biological target: GST-C2B, C2B domain of Synaptotagmin-1 (wild type) (Drosophila) (UniProt P21521)
[3] = biological target: T1, GST-C2B, C2B domain of Synaptotagmin-1 (wild type) (Drosophila, UniProt P21521 323-474); conditions: both partners purified
T1 construct: Synaptotagmin-1 (SYT-1), Drosophila, C2B domain, printed as 'bases 323–474' (read as residues 323-474), from the Drosophila syt cDNA clone, in pGEX-4T-1; also called GST SYT-1 C2B domain; C2B SYT-1; source: E. coli, purified (glutathione resin, washed free of nucleic acids)

“MBP-C2B, C2B domain of Synaptotagmin-1 (wild type) (from UniProt P21521 323-474) (domain or fragment)” was tested, and the fold binding against binding to GST-C2B [1] was 4 fold.

With “MBP-STNA (CCD), coiled-coil domain of Stoned-A (from UniProt Q24211 1-850) (domain or fragment)” the fold binding against binding to GST-C2A [2] was 3 fold, the fold binding in Ca2+ buffer against EGTA buffer [2] was 2.5 fold and the fold binding against binding to GST-C2B [1] was greater than 3 fold.

For “MBP-STNB (MHD), µ-homology domain of Stoned-B (from UniProt Q24212 1-1262) (domain or fragment)”, the fold binding against binding to GST-C2A [2] was 4 fold, the fold binding in Ca2+ buffer against EGTA buffer [2] was 4 fold and the fold binding against binding to GST-C2B [1] was greater than 5 fold.

B1: MBP-C2B, C2B domain of Synaptotagmin-1 (wild type) (domain or fragment, Drosophila, UniProt P21521 323-474, looked up)
chain: QEKLGDICFSLRYVPTAGKLTVVILEAKNLKKMDVGGLSDPYVKIAIMQNGKRLKKKKTSIKKCTLNPYYNESFSFEVPFEQIQKICLVVTVVDYDRIGTSEPIGRCILGCMGTGTELRHWSDMLASPRRPIAQWHTLKDPEETDEILKNMK
notes: Synaptotagmin-1 (SYT-1), Drosophila, C2B domain; 'the DNA encoding the C2B domain was also inserted into pMAL-c2X'; also called full length MBP-C2B; wild-type MBP-C2B; source: E. coli, purified (amylose resin, washed free of nucleic acids)
B1: binds [3].
